Here are results for 1 substance from publication PMC5057311.

In test [1] the target is CD86 on cynomolgus monkey blood cells (cynomolgus monkey (endogenous in blood cells)). Description: flow cytometry on cells.
Test [2] deals with CD80 on cynomolgus monkey blood cells (cynomolgus monkey (endogenous in blood cells)). Description: flow cytometry on cells.

In test [1], “CTLA4‐Ig recombinant fusion protein (from UniProt P16410 36-161) (Fc fusion)” displayed a percent free CD86 of predose, 4 h after the low dose (0.03 mg/kg) of 67% and a serum CTLA4‐Ig concentration at ∼90% target suppression of 33 µg/mL. In test [2], this substance registered a percent free CD80 of predose, Day 14, high dose (3 mg/kg) of 3%; a percent free CD80 of predose, Day 14, middle dose (0.3 mg/kg) of 42%; a percent suppression of free CD80 upon administration (all dose groups) of over 90%; a serum CTLA4‐Ig concentration at ∼90% target suppression of 0.18 µg/mL.
